From patent EP4611795A1 come the findings set out here.

Assay [1] has as its target human IgG (purified human IgG; IgG in human sera) (human). In words: cell-based or functional assay.
Assay [2] deals with human IgM (purified human IgM, MilliporeSigma; IgM in human sera) (human). Nature of the assay: cell-based or functional assay.
Sequence of human IgM (purified human IgM, MilliporeSigma; IgM in human sera) (human) (heavy, as listed by the source): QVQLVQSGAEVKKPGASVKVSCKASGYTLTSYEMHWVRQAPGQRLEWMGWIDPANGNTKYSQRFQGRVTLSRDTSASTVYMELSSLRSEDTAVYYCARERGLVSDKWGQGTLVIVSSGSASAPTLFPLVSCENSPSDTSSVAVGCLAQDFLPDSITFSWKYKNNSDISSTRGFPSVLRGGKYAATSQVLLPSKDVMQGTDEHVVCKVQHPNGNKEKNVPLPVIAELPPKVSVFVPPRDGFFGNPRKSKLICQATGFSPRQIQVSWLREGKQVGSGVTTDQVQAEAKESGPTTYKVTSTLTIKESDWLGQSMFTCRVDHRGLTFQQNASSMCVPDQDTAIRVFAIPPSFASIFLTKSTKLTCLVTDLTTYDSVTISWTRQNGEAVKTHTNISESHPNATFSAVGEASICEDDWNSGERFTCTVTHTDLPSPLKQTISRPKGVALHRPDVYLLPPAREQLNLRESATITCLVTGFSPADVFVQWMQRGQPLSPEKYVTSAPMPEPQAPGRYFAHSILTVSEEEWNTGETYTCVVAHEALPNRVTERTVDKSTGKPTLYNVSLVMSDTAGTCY

Regarding “IceMG (recombinant His-tagged fusion protein of IceM and IdeZ proteolytic domains with the rigid linker) (enzyme)”, the EC50 of IceMG enzymatic activity on IgG in human sera in assay [1] was determined as 4.7 nM. This substance had an EC50 of IceMG enzymatic activity on IgM in human sera in assay [2] of 0.07 nM.
